In patent publication US11260101 (JINAN UNIVERSITY, dated 2022):

Target: T1, fibroblast growth factor receptor 2 (FGFR2)
T1 construct: also called membrane receptor FGFR2
Assay: isothermal titration calorimetry (ITC)
Excerpt: 1. Detection of the Affinity Between the Repair Peptide R1 and FGFR2 by Using the ITC Method The affinity was detected by an isothermal totration calorimetry (ITC), and the detection result was shown in FIG. 1. […] (The K denoted the affinity constant, and the Kd denoted the dissociation constant. The larger the K was and the smaller the Kd was, the stronger the affinity was).

T1 sequence (P21802 22-821): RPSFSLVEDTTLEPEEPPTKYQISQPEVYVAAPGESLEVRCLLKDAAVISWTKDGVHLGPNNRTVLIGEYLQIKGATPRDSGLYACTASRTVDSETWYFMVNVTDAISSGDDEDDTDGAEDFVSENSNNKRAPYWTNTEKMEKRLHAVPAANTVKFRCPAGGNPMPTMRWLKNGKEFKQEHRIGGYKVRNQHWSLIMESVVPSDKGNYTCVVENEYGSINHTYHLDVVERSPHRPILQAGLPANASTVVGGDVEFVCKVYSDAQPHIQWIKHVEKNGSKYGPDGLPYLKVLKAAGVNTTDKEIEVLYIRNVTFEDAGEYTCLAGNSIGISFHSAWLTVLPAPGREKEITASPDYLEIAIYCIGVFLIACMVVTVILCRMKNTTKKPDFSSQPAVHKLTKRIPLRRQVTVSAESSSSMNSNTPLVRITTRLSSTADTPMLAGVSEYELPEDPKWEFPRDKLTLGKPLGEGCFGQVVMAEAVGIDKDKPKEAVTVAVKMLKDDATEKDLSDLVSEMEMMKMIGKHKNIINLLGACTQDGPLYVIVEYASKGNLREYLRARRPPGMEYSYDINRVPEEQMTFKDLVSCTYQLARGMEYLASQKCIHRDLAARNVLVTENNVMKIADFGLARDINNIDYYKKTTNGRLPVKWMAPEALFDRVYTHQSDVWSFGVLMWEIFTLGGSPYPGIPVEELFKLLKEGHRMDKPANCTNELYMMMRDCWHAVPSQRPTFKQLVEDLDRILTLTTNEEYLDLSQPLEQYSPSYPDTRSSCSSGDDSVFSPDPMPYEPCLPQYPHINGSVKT

Ka: 7.35e+08 M⁻¹ | Kd: ~1.37 nM
B1: repair peptide R1 (peptide)
peptide: GPANVET
notes: Linear 7-residue peptide made by chemical synthesis; also called R1 peptide; GPANVET
